Assay results published in PMC5489476, “A thermophilic cell-free cascade enzymatic reaction for acetoin synthesis from pyruvate” (Scientific Reports, 2017).

What was measured:
coAHASL2 = biological target: T1, coAHASL2 (Caldicellulosiruptor owensensis, UniProt E4Q4G3); test: colorimetric acetoin assay; activity with […] FAD; assay type: biochemical; conditions: pyruvate, ThDP, Mg2+; 65 °C, Tris pH 6.5
T1 construct: gene Calow_0543; catalytic subunit alone, EC 2.2.1.6
T1 sequence (E4Q4G3 1-552): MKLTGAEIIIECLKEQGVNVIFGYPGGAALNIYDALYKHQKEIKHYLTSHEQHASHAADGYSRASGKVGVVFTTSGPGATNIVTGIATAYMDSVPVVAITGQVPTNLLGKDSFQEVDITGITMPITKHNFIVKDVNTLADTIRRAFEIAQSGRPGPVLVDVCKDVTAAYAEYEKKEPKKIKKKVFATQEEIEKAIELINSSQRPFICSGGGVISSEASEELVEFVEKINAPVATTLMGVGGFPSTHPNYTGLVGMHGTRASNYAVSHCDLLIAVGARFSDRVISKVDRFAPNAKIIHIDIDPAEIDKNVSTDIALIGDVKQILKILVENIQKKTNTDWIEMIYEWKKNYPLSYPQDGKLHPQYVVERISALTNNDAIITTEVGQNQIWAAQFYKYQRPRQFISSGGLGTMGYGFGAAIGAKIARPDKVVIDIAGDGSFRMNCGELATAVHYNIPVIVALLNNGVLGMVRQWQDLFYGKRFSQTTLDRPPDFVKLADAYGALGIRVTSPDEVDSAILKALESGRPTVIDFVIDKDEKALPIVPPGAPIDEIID

coAHASL1 = biological target: T2, coAHASL1 (Caldicellulosiruptor owensensis, UniProt E4Q3I4); test: colorimetric acetoin assay; activity with […] FAD; assay type: biochemical; conditions: pyruvate, ThDP, Mg2+; 65 °C, Tris pH 6.5
T2 construct: gene Calow_0356; catalytic subunit alone, EC 2.2.1.6
T2 sequence (E4Q3I4 1-536): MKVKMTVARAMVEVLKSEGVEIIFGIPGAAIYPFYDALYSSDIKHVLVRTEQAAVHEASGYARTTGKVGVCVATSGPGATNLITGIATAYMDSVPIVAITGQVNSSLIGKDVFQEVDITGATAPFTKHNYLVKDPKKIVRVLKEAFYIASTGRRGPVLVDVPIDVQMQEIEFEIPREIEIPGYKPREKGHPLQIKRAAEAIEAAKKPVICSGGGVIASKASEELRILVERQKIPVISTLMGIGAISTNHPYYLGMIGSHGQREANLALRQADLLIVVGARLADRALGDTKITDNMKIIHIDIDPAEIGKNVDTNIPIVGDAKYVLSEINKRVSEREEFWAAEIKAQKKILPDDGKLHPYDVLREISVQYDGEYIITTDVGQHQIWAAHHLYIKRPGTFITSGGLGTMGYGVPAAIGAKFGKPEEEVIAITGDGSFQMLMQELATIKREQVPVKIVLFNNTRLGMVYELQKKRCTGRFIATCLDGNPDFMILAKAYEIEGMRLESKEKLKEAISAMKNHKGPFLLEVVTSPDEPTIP

purified protein = substrate: CC(=O)C(=O)O; test: purified protein; assay type: biochemical, Caldicellulosiruptor owensensis; conditions: ThDP, FAD, Mg2+, catalytic subunit alone
[1] = 70 °C, pH 6.5 (citrate-phosphate)

Which results are given for `Cc1cc2nc3c(=O)[nH]c(=O)nc-3n(C[C@H](O)[C@H](O)[C@H](O)COP(=O)(O)OP(=O)(O)OC[C@H]3O[C@@H](n4cnc5c(N)ncnc54)[C@H](O)[C@@H]3O)c2cc1C` [FAD]?
activity enhancement (coAHASL2): concentration-dependent enhancements of both coAHASL1 and coAHASL2 were observed upon the addition of FAD; activity enhancement (coAHASL1): concentration-dependent enhancements of both coAHASL1 and coAHASL2 were observed upon the addition of FAD

B1: coAHASL1 (Caldicellulosiruptor owensensis OL) (protein)
chain: T2 sequence (E4Q3I4 1-536)
notes: catalytic subunit alone, EC 2.2.1.6
For B1, which Km (purified protein; 65 °C, pH 6.5 (Tris)) is on record?
Its Km is 71.83 ± 4.63 mM.

And the Vmax (purified protein; 65 °C, pH 6.5 (Tris))?
Its Vmax is 3.7 µmol/min/mg.

B2: coAHASL2 (Caldicellulosiruptor owensensis OL) (protein)
chain: T1 sequence (E4Q4G3 1-552)
notes: as for B1
How did the Km (purified protein; [1]) turn out when B2 was run?
Its Km is 53.78 ± 2.68 mM.

And the Vmax (purified protein; [1])?
Its Vmax is 0.7 µmol/min/mg.
